In the DeepSol protein solubility set:

Experiment: soluble on expression in E. coli; label from the status in PepcDB or PDB records

Soluble on expression in E. coli, not soluble:
MGSDKIHHHHHHMRSITTNYSDDGYNFAFLDEQTKRMVRRTLLKALSIPGYQVPFGGREMPLASGWGTGGIQITASVLGPNDRLKVIDQGADDTTNAVSIRRFFQTVADISVTESTEEATIIQTRHRVPEAPLTEGQILVYQVPEPEPLRKLIPRESETRKMHAYAEYGAMQVTLYENIARFGRIAKTYDYPAMINGRFLMSPSPIPKFDNPKMANNPAIQFWGAGREKRIYAVPPYTSVRSLDFDDHPFEVQTWQGCCALCGSTVSYLDEVITDDKGSRMFVCSDTDFCNTRQAQAAAQPNSAGGES
MGSDKIHHHHHHMRSMTDVRRYWISLLRKICEMPLELCASDRLKKSMPVEGKKSEERRKFTHLELLGRIFCGISPFLELNRESPSTDPEERKIATRLSEFAVKSLDVATNPNCKDYMNFKEGRQPLVDAAFLVEAILRAPKVLWEDLDVSTKKRLIRELKATRKIEPYFSNWLLFSAMIETFFFFAGEEWDSTKVDLILKNVESWYKGDGAYGDGPFFRWDYYNSFVIYPMTIDVLRIISEEKTEWKELYVKVLRRAQRYAVVLERMISPEGTFPIIGRSITYRTAVFHLLSQLSLLHLLPASLSPAQVRCALTAVLRRIFENPSTFDENGWLKIGVIGSQPSLGEEYITTGSLYLCTTVFLPLGLPTSDPFWRDPCKKWTNKKVWEGEDVAPDRALED
MGSDKIHHHHHHMRTNVRLLAYRLLRKYEKEKFISREDVDSVLSFLDDRDRRFFKELVWGVVRKEELLDWYINQLLKKKDIPPAVRVALRMGAYQLLFMNSVPDYAAVSETVKLVKNENFKKLVNAVLRRLRTVPEPKELHLVYSHPEWIVNYWRSFLPEEAVLRIMKWNQEPLPVMLRVNSLAATKEEVIKILAEEGTEAVPGKHAPFSLIVRKLGVPMNDSRVINDGLASVQGESSQLVPFFMELRPGLRVLDTCAAPGGKTTAIAELMKDQGKILAVDISREKIQLVEKHAKRLKLSSIETKIADAERLTEYVQDTFDRVLVDAPCTSLGTARNHPEVLRRVNKEDFEKFSEIQLRMVQQAWQLLEKGGILLYSTCTVTKEENTEVVKRFVYEQKDVEVIDIRDKMKEFEVEGIWDGYGFLMLPDETITPFYISVLRKMG
MGSDKIHHHHHHMRTSLLYKIKEEERILPSKNLKGNEIIFILAFPDIYKYGLPNLGIQTLYKELYLRDDVAVDRYYTDEDQPFSFEYGFKLKDSDFIGISFQYEGIVLNAFKILKAGSIPLINLLREENDPIIIGGGPVANYNPLPLSLVCDVIVLGEAEEAIHKIIDSYKVYRNVKRKRMKFLQAVSQIEGIYVPCIHGFFQTGMVKQTSPVDINEHPAHSIFVTKNTVYEERVFSIEVRRGCTQRCRFCYMGHRLKPPRTLRWETFKKIVDLAIDQCNVEIIKLFYEGLETRIVEHYLEYIIKKGGRVRIGSQRLEKLSKRIIEIAAISGQRKITVAPETSGRLRKVIGKHEIKDEEILEVVRISSLYGIPDFGLYFILAIPGETFEDLDKIADLIMKVRHQMNKLKNTDGRLEIGINPLYPKPFTPFQYVKLPSLKNIEDRFLYIVEKVKKEGFPVVISNDVVDEKVEKRQKDENENESLVKFETTVFHPISLLQPMISRGGLEIAFLLHYLHSKRFNTVSDLENLLNEFGINAAWYFEEYIDKYCPWKIQKTLISEDYLLKEYFKALNFISTDEECKLNCSQCFNRCIDISTTNYQGGMSNA
MGSDKIHHHHHHMRVDVMVIGAGAAGMAAALKAKEEGAEVLLVERDERTGGILNQCIHNGFGLHYFRQELTGPEYAERFQEKMEKMGIRALTNAYVKRVEDRRVILVTEQGIEEVEVGALVYATGARERPFGSLMIPGDRPSGIFTAGVAQRLINIENRLPGKRALILGSGDIGLIMARRLTLEGMEVVGVVERLPYAGGLLRNVIQCLEDYNIPLYLSSTVVEVRGRERLEEVVVAKVDEQFRPIPRTERVFKVDTLVLSVGLIPQVELIENLVVKNPTSRGVGVSNIGQTSRDWIFSAGNCTVIFDLVDYVSYEGETAGRYAAKFVKGEIPREKIPVRPGKNVMVVHPIWYTPAEPLTLYLRVKKPMEKGRLVVGRFAREFEDLVPSEMLRVKISDRDLEGLDEIVVSVEEVN
MGSDKIHHHHHHMRVLAIRHVEIEDLGMMEDIFREKNWSFDYLDTPKGEKLERPLEEYSLVVLLGGYMGAYEEEKYPFLKYEFQLIEEILKKEIPFLGICLGSQMLAKVLGASVYRGKNGEEIGWYFVEKVSDNKFFREFPDRLRVFQWHGDTFDLPRRATRVFTSEKYENQGFVYGKAVGLQFHIEVGARTMKRWIEAYKDELEKKKIDPRLLLETAEREEKVLKGLLRSLLERMVES
MGSDKIHHHHHHMRWIAPTEKDVAAATLEKRLWAAADELRANSGLKSAEYSQPILGLIFLKFADARFAVRRAELAKVTTGRRGSRVDDPASYHAEGVLFLASEARFSELLEFPEGGRDGKTLGQAVDDAMRAVERDNEQLAGVLPKTYQQFKARPLKELLKAFSAIPVDLEGDSFGKIYEYFLGEFAMAEGQGGGEFYTPQPIVRLMVEILEPFKGRVLDPACGSGGMFVQSARFVSEHKKNGGLAIHGVEKVDTTGQLCRMNLAVHGLEGDIRHGGEINSYYDDPHNAVGRFDFVLANPPFNVDKVDKDRIRDAVGPGRRFPFGVPNVDNANYLWIQLFYSALNESGRAGFVMASSAPDARASEQELRRKLIESRAVDVIISVGSKMFYTVALPCTLWFLDRGKPKDRRDKVLFIDAQHIYRQVDRAHRDWTEAQIGFLANVARLFRREEVDLTFGGAEAKYRLREVFGNKPTYADVAGFCKAATISEIEKQAWSLNPGRYVGAAQGEEVSDEDFRTQFEGLAEEFETLTAEAREFEKVITKTAAEILG
MGSDKIHHHHHHMRYNCLYLIFKESRFVKIAIVANTSWNIYNFRLNLIHFFLAHKYEVVCIAPVDRHTEALTTLPVTFVPVEIDSKGNNPIKDARLVGKFLSIYKKHKPDVILQYTIKPNIYGTLAAKLCGIPTINTVTGLGTVFLHDTCITRLAQQLYAFSFKFATVAVFQNEDDRDIFVQKRIITHAKTQIIKGSGVNTTHFIPAKTYSKAFAFLMVARLLYDKGIREYAQAAKCLHEQHGNNVQCLLIGAIDSDKQLGINKEDVHAWANRHHLIYKPFDTAILKEYQQANVVVLPSYREGLSKSLLEAGACGKPLIASNVSGCKEIVIDNWNGYLCEAKDAGNLFDKMNLMLETSPEQLAEMGKNSRDFIEQNFSDKIISNDYFYLIKRVTESKKTNTNDIH
MGSDKIHHHHHHMSADGSEYGRYFEQLQKVNLTVRLGDTGSFDGTAAITSLKGSLAWLELFGAEQPPPNTLSEGAEVSVSVWTGGALCRCDGRVETLRDDRQFAIRLVGRVRELQRREYFRLDVSIPFSYELLAGVSPEEAQERWLHERMDSWRSPAMVQEGSSWRVVDWNGRDIPSARANLSGGGMRFRVSEDVASGTLMLVSLFLPHPQPRVICVLAEALRCAEITLTLQAGTHYSLSMRFITISDKDREAVISYLFSEQRRELMSKSDRFQIGGRR
MGSDKIHHHHHHMSARYLDPKKRHEFVFLFDVRDGNPNGDPDAGNLPRVDPETMHGLVTDVALKRKIRDYIALTREGKPRFAIFVQSRVALNRLILEGFQEAGIEPVSLQLAEEQMANESLLEHLDGLAEAGFSREGGTLYYSGQATTEKEIAKLLMGEEEAVAPFKKELEKLAKELAKAVKGRKITEEDRERAQAKLLERFFDIRMFGAVLSTGLNAGQVRGPVQLTFARSLDPIAPLEVSITRVAITREEDRARKETEMGRKPLVPYGLYRAHGFFNPFLAAKTGVQPEDLEALWDALQHLFELDRSAARGEMTVRGLAVFSHEDAKGNAPAHRLFGLIRVERREGVEAPRSFADYRVRAPKEGSLEAHGFPGVHLAWLVRPEGLEDLPPHVG
MGSDKIHHHHHHMSASIPETMKAVVIENGKAVVKQDIPIPELEEGFVLIKTVAVAGNPTDWKHIDFKIGPQGALLGCDAAGQIVKLGPNVDAARFAIGDYIYGVIHGASVRFPSNGAFAEYSAISSETAYKPAREFRLCGKDKLPEGPVKSLEGAVSLPVSLTTAGMILTHSFGLDMTWKPSKAQRDQPILFWGGATAVGQMLIQLAKKLNGFSKIIVVASRKHEKLLKEYGADELFDYHDADVIEQIKKKYNNIPYLVDCVSNTETIQQVYKCAADDLDATVVQLTVLTEKDIKEEDRRQNVSIEGTLLYLIGGNDVPFGTFTLPADPEYKEAAIKFIKFINPKINDGEIHHIPVKVYKNGLDDIPQL
MGSDKIHHHHHHMSATKIDAVYLDADVTAYKGNPFIEALPPLQESVNSAAALRSTSLFDASDLQKPRVVRAHSICRITNDFFQPLGSHMLLSERVSLMIRGGYVGRNPKTGDLQRHLQNGYERVQSGDLSSFRFEEAKSTAQSMLLIGCSGSGKTTSLARILDTYPQVIYHPTMNFEQVVYLKVDCSHNGSLKEICLNFFRALDKALGSNYEKKYGLKRNGIETMLALMAQIANAHAVGLLVIDEIQHLSRAKSGGPEAMLNFFVTMVNTIGVPVMLIGTPKAREIFEIDLRSARRGSGLGAIFWEPMKQGPNGKRNPEWAAFTDNLWKQQLLQSKDLVLTDDLRDLWYDLSQGVMDTVVKLFVLSQLRALALGKERLTPGLMKQVYKDELKPVHPMLEALRSGVPEKIAQYSDLMLPEMDKRLIQLQRDIAGMKVETPEELALKQLATDDERRIYLMLKDDYDSSLLVATVRKAFAENPKLTRPQLLPVILNWLSDTDNPVKPEQPKTQVKNTKPDQWDTLDWDDLRYISSQQQSAAAMHSALGTKGLLFDLRRRMT
MGSDKIHHHHHHMSDADPKVPHRGHELLDVLARLGGSARNAQIAQVMDVSEETVRRLVKTLAKQGKVERVHGGTYLRGSQDAPMYSGALEQQPKEKTRIAKGVLELIRDGMTLFINVGSTTTYVAEQLRERRDLTIVTNSISTVASLADHNGSRVFLAGGEVSRSERGCFGRATEDFARRFAYDVLVIGADAMSPELGVLAANPREAELTRALLGNATRVIVAADYRKFSAIAPCIAAPLEAITDLVTDAAPPDALQDALDRCGVATHLAAKSGRITTRTPPPQDVGHSNTNRKTLSFPTEVS
MGSDKIHHHHHHMSDIIDEVISSFKTSSIFINREYLLPDYIPDELPHREDQIRKIASILAPLYREEKPNNIFIYGLTGTGKTAVVKFVLSKLHKKFLGKFKHVYINTRQIDTPYRVLADLLESLDVKVPFTGLSIAELYRRLVKAVRDYGSQVVIVLDEIDAFVKKYNDDILYKLSRINSEVNKSKISFIGITNDVKFVDLLDPRVKSSLSEEEIIFPPYNAEELEDILTKRAQMAFKPGVLPDNVIKLCAALAAREHGDARRALDLLRVSGEIAERMKDTKVKEEYVYMAKEEIERDRVRDIILTLPFHSKLVLMAVVSISSEENVVSTTGAVYETYLNICKKLGVEAVTQRRVSDIINELDMVGILTAKVVNRGRYGKTKEIGLAVDKNIIVRSLIESDSRFADLWS
MGSDKIHHHHHHMSDLSQRIAELSPEKLKLLVQRLNNKQGEILLRSPIVPQSRELNSFPLSSAQQRLWFIDQLQPGNSAYNISVPMRLGGWLNVAALEQSFKEVVKRHEVLRTTFTVVDGQPLQVIASSLSFTLPVVDLQKLPQNQREAEVLRLASEEAQQPFDLAQGPLLRATLLQLAAAEYALLLTMHHIIADGWAIGVLIREIADLYKAFSVGKPSPLSELSIQYVDFAVWQQQWLQGQLETQLAYWQQQLGSIPVVELPSDFPRSTTQTFSGAREALVLPKTLCDRLKTLNQRQGITLFMVLLAAFGALLNWYTDREDIVVGTDIANRNQAETKALIGFFANQLVLRTNLSKNPTFLELLERVREMTLEAYAHQDLPFDKLVDALNPKRELNRTPLFQVKLVLENTQTPSLELPGLTISSLKIENKTVQFDLLLELNETEQGLFGIWEYSTDLFERDSIVRLSKNFATLLAEVATHPEAKLSELKAVLNQVDKQQHLAKEQVYQNTIQQKLMNVKRRANSRQSTSGNTNHDKN
